# Results published in the DeepSol protein solubility set.
# Assay: soluble on expression in E. coli; label from the status in PepcDB or PDB records
row,Sequence,soluble on expression in E. coli
1,MAKQSGGKPQIDEDFMKEIISQGLPVKKQETPLVTVETPDKPETVNKEEIKAEPKEEKAVKEPARRKKNTPGDYRETYFMRVDLTDRQPLYVSRTTHEKLMKIVTVIGGRKATVSSYVENILLRHFDQFQDEINELYESKFEKPF,soluble
2,MPRHFHVALLILVLCGAERARGALRVQLQDYDKNSWRSVLRRVAPEWVLEEFADVKVLSAAENGFQLPKSGLAQIEINKSGRKTVTANTPTDALNAINTYLRTECLSQVSWSNSSFSSGCRKRTSDFINFESKQIRYFGNMCTFSYSFAWWEWPQWERFIDWIALNGFNTVLMPLGQEIIWRDIFMGLGVQRDELDSYFTSQAYLAWHRMGNLKAYGGGLSDAQMLNDHNLAKRIIDRLLELGITPILPTFAGFVPDHLETLFPASKFNRLPRWNNFTSETSCMLSVSPFDPLFQKIGSTFLRHQKKMFGGDVTNMYSADPFNEILPSESAKFDAKFVKQTAQAIMNSCKKVDKNCVWVLQSWSFTYDQWPAWAIKSFLSAIPVGNLLILDLYAEVVPAWQMTSSFQGHHFVWCLLHNFGGSRELRGNLQKIDKGYQLALMKAGSNLVGAGLSMEAIDQNYVVYQFMIDRMWSPEPLPLNNWLKAYSESRYSADFKVAQKFWTLLAGTFYNQPEKWGTPRFSVFLYHRPGFGRKIEYWFPVEETFSRFRELLPALVHVLGEHPLFREDLNDVMREMTQFEMGNEAALSMSEAFLMEDKQQVGASCEMLMEMFQKLESYSNRDVRQWIENAKSIAPTSEERQVFPVTAGDILTVWGPTGQNLDYAHREWAGLMSGYYGRRWQYFCDWILEHDDFNHTEFSISVFRDVERPFSISNI,not soluble
3,MTNPNIPDDLLAKIAKKMADKCWWYLGPMLKSGPRGRDIVYRPDVLKNANIFSMCDDPDDFYAAGHDPNDINSEGRYRPFFKWCLQAGNPTAIYHEGLRLVTHESDIQGAILHLERIAPRNAAATLACAILYICAGNAHMGGVYLRLFGSNHYALESEDARDI,soluble
4,MSLERPEEYLPNIFEGKKGVIVDYGCGNGFYCKYLLEFATKLYCIDINVIALKEVKEKFDSVITLSDPKEIPDNSVDFILFANSFHDMDDKQHVISEVKRILKDDGRVIIIDWRKENTGIGPPLSIRMDEKDYMGWFSNFVVEKRFNPTPYHFGLVLKRKTSEGHHHHHPDPNSSSVDKLAAALEHHHHHH,soluble
5,MAHHHHHHMMQPHSQTRAFYCCDDEDKEGTDELLGELLFGADGRRGTDLSSTRCPPPAAPPASLDIAAPASAAATGSGAELPRLRYSRPPPHLTQTTLDLGHAEPTMATRCLLCRMLYSPENDEDAALHRRFCRGGRLRRRDRGPYDAPSSFTGACRSRRARTETAASPLASLSSPAAVAVHMLEELNGAGLGHSPSPLVANTTATVRRGGPRRRESGARGVAKATYTATDTLNTAADATVSLCTCVLRPRSSSSSSPHLSSPLAVFRISLNACGVADSKGGCTALRLLELLDFTPVVLRAAAERDVAPQTASSSVLCGNVPVVPSVRDSAASTVHVVCVVDTVLRLLLCAVVGEPRSREQDPELCVERRADGATVCSTRRNFTHGDVAGLWVLSPAELSAAQTAWEKSTAAPFASTRQALEVFFGTRAGGGAPSSAQSHAAHVTEKAHERCQQAAGVALHALAQYLVYGSSLCPSRQLSYSQAALAAAERMGAGFMEQCLAVASSCYLAGATPTPREDVGELQPLYIHGDSDDGGSDSDDANEDAKGVIGE,not soluble
6,MTTALYLEDAYKTSCETEVIKVEGNKVFVKETVFYPTGGGQECDTGVIVQDGSVFEVEKVKKEQGEIVHYIKDEAQVKLGPVKLEINWERRHNLMRHHSLLHLIGAVVYEKYGALCTGNQIYPDKARIDFNELQELSSVEVEEIVEEVNKLIKQNKEISTRYMSREEAENAVGMIKTAINLLPTTIQEIRIVTIENLDEQACGGTHVKNTSEIGTLVIDKVKSKGKQNRRFEVRAI,not soluble
7,SYRSRSAFKLLEVNERHQILRPGLRVLDCGAAPGAWSQVAVQKVNAAGTDPSSPVGFVLGVDLLHIFPLEGATFLCPADVTDPRTSQRILEVLPGRRADVILSDMAPNATGFRDLDHDRLISLCLTLLSVTPDILQPGGTFLCKTWAGSQSRRLQRRLTEEFQNVRIIKPEASRKESSEVYFLATQYHGRKGTVKQ,soluble
8,MSLKAIGFEQPFKLSDGNLFKTFNLDIPEPKVHEILVKIQSISVNPVDTKQRLMDVSKAPRVLGFDAIGVVESVGNEVTMFNQGDIVYYSGSPDQNGSNAEYQLINERLVAKAPKNISAEQAVSLPLTGITAYETLFDVFGISRNRNENEGKTLLIINGAGGVGSIATQIAKAYGLRVITTASRNETIEWTKKMGADIVLNHKESLLNQFKTQGIELVDYVFCTFNTDMYYDDMIQLVKPRGHIATIVAFENDQDLNALKPKSLSFSHEFMFARPLNQTDDMIKHHEYLEDITNKVEQNIYQPTTTKVIEGLTTENIYQAHQILESNTMIGKLVINLNEGHHHHHH,soluble
9,MSIFDHYQSRYEAAKDEEMSLQEFLALCKDDKSAYANAAERLLMAIGEPEIIDTAKDPRLSRIFSNRVISRYETFKDFYGMEDAIEQIVSYLKHAAQGLEERKQILYLLGPVGGGKSSLAEKLKSLMEAMPIYVLSANGERSPVNDHPFCLFKATEDGEILKTDYGIEQRYLRSIMSPWAAKRLHEFGGDITKFKVMKVRPSILDQIGIAKTEPGDENNQDISSLVGKVDIRKLEHYSQDDPDAYSYSGALCKANQGLMEFVEMFKAPIKVLHPLLTATQEGNFNGTEGLSAIPFDGMILAHSNESEWQTFRNNKNNEAFLDRVYIVKVPYCLRVSEEVKIYQKLLENSELSQAPCSPSTLETLAQFSILSRLKEPENSS,not soluble
10,MAHHHHHHMSEREHDETPVTAEGSAAAHEGSNMDLNGNESRASYIKTDLGELNMIESMCPKCQETGTTRLMITSIPHFKEIIVSSFECQHCGEVNNEVAFGGTFGPKRVRYELQVRSKQDLDRQVVKSEFATIAIPELELEIPPESQKGNLNTIEGVLEQTYSGLQLQQPLRKIQHPDVYEKIEAFCAKLASFRSGDVPFTLTLDDPAGNSYIEPIHDYYHPTLDPQLTKYEKERTEIDRQLLGIALDYNTERTQEEEKDVEEGQFSDVTQILCDCPACRRPGYIMMHECDIPYFKQTIIMAFKCEYCGYKSNEIKAGGEINAKGLRLVLHVTSEADLKRDVLKSDTATLIIPEVRLELAPGTLGGFFSTVEGTITQVRDQLMNLPQAAFAAGDSADDNSKTMLEFVKELDELLALREEFTFILDDPLGNVYIQNPCSHLPPPDDVDPKLEREEYTRTEEQDEELGILSMRHNEGQAGIEKSEDEADHEGEERNGAAAEEQETQQ,soluble
11,MIQIVRDNFPGLETAEQLEDYKKTVIKNIERKTALFTKSDNGNIVGVLIFSYYSKCLSCMAVHPDYRKMGIGYAMVKKMIDLFPKDMDISVTTFREGDLKGVAPRAPYKKIGFLEDEFVEEFNYPHQKFIFRNRP,not soluble
12,MSLKSIFISGAANGIGKAVALKFLHEGWLVGAYDLAEITYSHPNLRWGYLNVRQSESWDKALEDFATHTGGTIDVVDNNAGVIIEGPLQDAEEGSVDKLLAINVNGVTLGARAAHPYLARTPGAQLLNMSSASAVYGQPQIAVYSASKFYVAGLTEALNLEWRKDDIRVVDVWPLWAKTDLVNGVKAKSLKRLGVRITPEQVAQAVWDAVHPKSRWAKGKVHHGVSKLDKALYLMKSLSPDRVAMCFARLIAGEGHHHHHH,soluble
13,MLCEIECRALSTAHTRLIHDFEPRDALTYLEGKNIFTEDHSELISKMSTRLERIANFLRIYRRQASELGPLIDFFNYNNQSHLADFLEDYIDFAINEPDLLRPVVIAPQFSRQMLDRKLLLGNVPKQMTCYIREYHVDRVIKKLDEMCDLDSFFLFLHGRAGSGKSVIASQALSKSDQLIGINYDSIVWLKDSGTAPKSTFDLFTDILLMLKSEDDLLNFPSVEHVTSVVLKRMICNALIDRPNTLFVFDDVVQEETIRWAQELRLRCLVTTRDVEISNAASQTCEFIEVTSLEIDECYDFLEAYGMPMPVGEKEEDVLNKTIELSSGNPATLMMFFKSCEPKTFEKMAQLNNKLESRGLVGVECITPYSYKSLAMALQRCVEVLSDEDRSALAFAVVMPPGVDIPVKLWSCVIPVDICSNEEEQLDDEVADRLKRLSKRGALLSGKRMPVLTFKIDHIIHMFLKHVVDAQTIANGISILEQRLLEIGNNNVSVPERHIPSHFQKFRRSSASEMYPKTTEETVIRPEDFPKFMQLHQKFYDSLKNFACC,soluble
